Data: article PMC4928587 (Molecular cancer research : MCR, 2009)

Target: GST/BRCA1-1293–1863 (human, UniProt P38398 1293-1863)
Assay: pull-down

Chain of GST/BRCA1-1293–1863 (P38398 1293-1863): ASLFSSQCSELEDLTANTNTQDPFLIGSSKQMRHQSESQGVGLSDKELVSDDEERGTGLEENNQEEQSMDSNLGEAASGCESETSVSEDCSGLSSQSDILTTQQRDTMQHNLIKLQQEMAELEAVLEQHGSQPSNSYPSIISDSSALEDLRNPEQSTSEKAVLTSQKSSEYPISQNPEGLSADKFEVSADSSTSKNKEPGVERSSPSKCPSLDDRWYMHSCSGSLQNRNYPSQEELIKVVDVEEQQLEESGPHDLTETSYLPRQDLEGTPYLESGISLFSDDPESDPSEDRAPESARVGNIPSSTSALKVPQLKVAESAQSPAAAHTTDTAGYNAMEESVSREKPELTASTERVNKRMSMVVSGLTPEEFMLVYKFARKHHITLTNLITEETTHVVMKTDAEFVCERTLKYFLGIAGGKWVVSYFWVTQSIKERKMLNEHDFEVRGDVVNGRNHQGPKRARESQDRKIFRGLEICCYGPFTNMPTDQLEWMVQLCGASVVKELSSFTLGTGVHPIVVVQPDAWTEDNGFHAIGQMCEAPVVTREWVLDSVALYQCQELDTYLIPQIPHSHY

B1: MBP/PALB2-1–70 (domain or fragment, human, UniProt Q86YC2 1-70, looked up)
chain: MDEPPGKPLSCEEKEKLKEKLAFLKREYSKTLARLQRAQRAEKIKHSIKKTVEEQDCLSQQDLSPQLKHS
  binding result: binds
